Laboratory results taken from the DeepSol protein solubility set.

experiment: soluble on expression in E. coli; label from the status in PepcDB or PDB records

Row | Sequence | soluble on expression in E. coli
1 | MIKIVTDNFLYEKEKVLALRYMYDSAKKPGITIITVTNKQKYIKNIMDNFRRCLYPKKEFIIILNDTKLQTSLYKNYFSKTKNLKLFKVDSSYSLGECLNLAISKSNYNYIAKMDDDDYYGSHYILDSMNAFNYTDASIIGKATHFIYFEDRTLLNLWCQGNENTYATSVAGATFVMKKSIFNKVKFNSLNNGEDIDLLSQCNNLGIKIYSCSKFNYVYNRHASPDNHSWKISNDLLVKRSIKLCITKSYKRIVHILEHHHHHH | not soluble
2 | MTDESDALCATEKEIMHATHRALVNSGYAELSISRISDELDKAKSTIYHYYDSKDALLLRFLRFTVDRFEATINTSIGDNPKEDLNHIISTLLPCQLPEEKRQLHSVLVTLSPQALERAVFREQFTEIDTRLATIIEKTVRRGVDADVFRDVDPTHAAEHILATIKGTMYSRLTTNREAATAAAKASLFSYIDSHLIS | not soluble
3 | MTNFKDNDGDGTKLHVVMFPWLAFGHMVPYLELSKLIAQKGHKVSFISTPRNIDRLLPWLPENLSSVINFVKLSLPVGDNKLPEDGEATTDVPFELIPYLKIAYDGLKVPVTEFLESSKPDWVLQDFAGFWLPPISRRLGIKTGFFSAFNGATLGILKPPGFEEYRTSPADFMKPPKWVPFETSVAFKLFECRFIFKGFMAETTEGNVPDIHRVGGVIDGCDVIFVRSCYEYEAEWLGLTQELHRKPVIPVGVLPPKPDEKFEDTDTWLSVKKWLDSRKSKSIVYVAFGSEAKPSQTELNEIALGLELSGLPFFWVLKTRRGPWDTEPVELPEGFEERTADRGMVWRGWVEQLRTLSHDSIGLVLTHPGWGTIIEAIRFAKPMAMLVFVYDQGLNARVIEEKKIGYMIPRDETEGFFTKESVANSLRLVMVEEEGKVYRENVKEMKGVFGDMDRQDRYVDSFLEYLVTNR | soluble
4 | MYKPTERNAQNSLAMMNYAYDTSLQETMILTEAFHTDRVICDNGSLYKFIWVQEGKLTLIVDHVEIEMEQDEIISVSNLHRTEFKNVSGRYLALLFNENFYGIYKHEKEVSCSGVLFNGTSGIVHLRLPIADSELLHEVVDRMVTEYILRDNLQGEMLRLLLKRFIILCTRLARKQLSGFPVNEKGFDIIQRYYVLVDNHFKEKKQVQAYAALLHRSPKTLSNLFAAYGMPSPLKIIQERVVTEAKRLLLHTSHSIKEISVILGFESVGTFSRFFKNMTGENTSAYRKRLQ | not soluble
5 | MSLSISFKDVPAGHWSYKAILDLASKNIVTGYGNGIFGFGDDVTREQVARLMYLQLKPESQENYNNPYNDINDHSTSFKREILALTEMGIFAGDEKGNFRPKASLTREEMAQVLTNAYKLVAKSEHTFVDVDRKSWSNKAISAVQSNRIAAGTGDNMFSPKMNVTREQYVQFLYNATLPYEERPGANQEPKRFANCKEANDAGYYDITRDSPYYGKHLDRDGDGIACERNKSSKEGHHHHHH | not soluble
6 | MKLVGSYTSPFVRKLSILLLEKGITFEFINELPYNADNGVAQFNPLGKVPVLVTEEGECWFDSPIIAEYIELMNVAPAMLPRDPLESLRVRKIEALADGIMDAGLVSVREQARPAAQQSEDELLRQREKINRSLDVLEGYLVDGTLKTDTVNLATIAIACAVGYLNFRRVAPGWCVDRPHLVKLVENLFSRESFARTEPPKA | soluble
7 | MSLKWIDSHIHVDQYKDEEKSKLLKDVEHSKEIKGLIAVSMNYQSSKETVSLAKRYPFVHPAIGFHPEQPIHKEECEKIYKLIEEHVEDIVAIGEVGLPYYLRKEDKRIAVNSYISVLQRFVELASKYDLPIILHAVYEDADIVCDLLEKYKVSRAHFHWFKGSETTMKRMMRNGYYISITPDVLHKEKIRKIVSYYPLEYMMVETDGPWEFQDDVMTHPGMIREVLKEISVIKNMSVDKVMKTIYENTIQFYPTLTGNKTPTSKFDEGHHHHHH | not soluble
8 | MGSDKIHHHHHHMDKIIGLGNALIDVLATLKDDTLLDELELPKGSMQLIDDAKLQQINTKFSQMKTHLATGGSAGNAILGLACLGAGTGFIGKVGNDHYGDFFRKNLQKNNIEDNLLTSEQLPSGVASTFISQDGERTFGTYLGAAASLKAEDLTLEMFKGYAYLFIEGYLVQDHEMILHAIELAKEAGLQICLDMASYNIVENDLEFFSLLINKYVDIVFANEEEAKAFTGEEPEEALRVIAKKCSIAIVKVGANGSYIRKGTEEIKVSAIPVEKVLDTTGAGDYFAAGFLYGLTCGYSLEKCAKIGSILSGNVIQVIGTTISPERWDEIKLNINKVLAE | not soluble
9 | MSLEITKIEVHVIGPEDKRYTWSEDIEEVYQSNTLIKIFTDEDIVGEAAIWNATYFEYDKYTAESLRHLLPILIGKDPLNREEILYDIRPRVFPQPPGAQALIDNALWDILGKKCKSPIYKILGGRRDKIKSYASTVMYNTIDEYLKVVDEMKEQGFSAVKFHTYCIPKKDLELAEAARKAFPSMSFMIDAENNYDLESSLIVAKKLEKLEFTWFEAPLPDYDFAGYKKITDSVGIKVIPSGNWVVDLQRFSEAIHNKVWSATRTDMAMMGGITNCKKAIDLSSAGGLDCEIMSWGYTLVSAANLHLMLSSDNCSYYEQPLPYNNFEFGMKDVLRTSQDGYMYAPTKPGLGMEIDWDKMMSKNIYSITCEEGKKISLVHSEGHHHHHH | soluble
10 | MTNLEIEYKTLLTKNEYNRLLSQMKHVTPVTQTNYYIDTKAFDLKANKMSLRIRTFVNSAELTLKVPEKVGNREYNVPLFLEQAKDMIKHGNLPESTALDIIISKGIKPSALVTFGNLTTVRRETVIPIGKLALDYNLYANTKDYELELEVSDALQGKIDFDSFLSEYHITFKYAKSKVARCINTLKKFNDK | not soluble
11 | SLIDFHFHAPVKEFLDFLGEFGEPAIKYFNAKVEVKGLKETLDYYESFGIKRFVVLPIDSTTFLGRRIPNQVINLDDRIVKFISVDPSKPNADEELKRSIKEFEPVGVKLHPQLQGFHPLDERALKIYEIIDNHGLIVVFHTGTSGIGAGVKSSIRLDYGRPIYFDEIAVRFQNMKIILAHFGWPWTEEAIAIALHKPNVYLDLSGWAPRYIPQVIWSNAKRLSDKLLFGSDFPLIRPERWLEEFKSVNLSQDIKDKILKHNAEKLVKKS | soluble
12 | MTTHLNPPQEAPYMKNATFYLLDNDTTVNGLSAVEQLVCEIAAERWRAGKRVLIACEDEKQAIRLDEALWARPAESFVPHNLAGEGPRGGAPVEIAWPQKRNSSPRDILISLRTSFADFATAFTEVVDFVPYEETLKQLARERYKAYRVAGFNLNTATWK | not soluble
13 | GNFTYAHSEFLKYEEPAYNEKYRSHIGQSLNQWYGLIAERLFIDEYDVQNSPKQTFGEYGAGDIKYRDVNGDGQITDADMVPLGYPTVPEIVYGFGFSFGNQRFDISAFFQGSARSSFWIDAKATSPFQHINPTDDDPYHQDIPLLKAYANDHWSESNRNLYAMWPRLSTTVIENNVRTSSWFMRNGAFLRLKTLEVGYTLPESWTKKAYISSARVYCSGNNLLLLSGFKLWDIEMGGSGLGYPIQRVINLGVQINF | not soluble
14 | MSDDGAFERDTTSFRHWVGDDVPPAAGRYHLYVSYACPWAHRTLLVRALLGLEDAISVSVVDPVRYDQGWTFDPEKPGCTPDHVFGGTHLRDVYTEADPEYTGRVTVPVLYDTDADTIVNNESEEIMRMLDVAFDDHAARDVDLYPEGYRDEVDRLIEDIYDPINNGVYRAGFADSQRAYDNAVDDLFEALAHYDDVLAEQRYLAGDVLTEADVAMFTTLYRFDEVYHTHFKCNRKRISDYDNLWPYLRELCQLPGVADTLYMEHVKQHYYRSHGHLNPKRLVPTGPNPAFFAPHDRDQLEHHHHHH | soluble
15 | SEATKERVGLLDTILPPALADAGLEDCALPPESIQEAFRKAANAVKSRAASIFDHEEEDGCLADPIPETADKIIVGGDNERDTGPCLAGKGIEKLAESKQAGDLVVAGEGEEGKSCVDGLKDLDVEGIERSSEKKDQSDEDEEEEMKPILVEGFV | soluble
16 | MSPPLVIKNGTVVNEDGMFKADVLVRNGIIVEVSPNITALPDTEVIDATDRLVIPGGIDPHTHMQMPYMGEVTKDDFLKGTEAAVAGGTTMIIDFCCPDHRNGESLIAGYNRWRSWADPKVCCDYGLSVAITMWRPETAEQMAIITSPEFGVNSFKFYMAYENTLMVRDDELFRGMQECAKLRALARVHCENGSVIKEKEIDLLAKGVTGPEGHTQSRPEEIEAEATNRACVLAAQANCPVYIVHVMTKGAASAISHHRAQGSIVFGEPIAAGLALDGSHYYNEDWLHAARYVMSPPLSRDPTTPELLMKLLAAGELHLTGTDNCTYDCRQKSLGKGNFTKIPNGINGVEDRMSVVWEKGVHSGIIDPMRYVSITSSTAAKIFNIYPRKGRIAVGSDADIVIFNPNATRTISKDTHHHNLDFNIFEGINCHGVAEVTISRGRIVWAHGKLQTVPGSGKFIPLLANSPFVFSTHEKREQKIQPRIVERLE | not soluble
17 | MSLVMSMANKREPAPGWPIVSGEYVVGNPESCVGVVTLGSHGLEQACIDAGAAIAGPCHTENLGIEKVVANYISNPNIRFMILCGSEVQGHITGQCFKALWENGIGDDGGIIGAKGAIPFLENVNKEAVERFRRQIVEVVDLIDCEDIGKITQAIKECLSKDPGAIDEDPFIIELEGGKGGGEEEEGVIKPITPEMAIIESRMRLIGNEMCYNGLLAKWQAGYYNGKEGHHHHHH | not soluble
18 | PDLTAALRDVRQQYESVAAKNLQEAEEWYKSKFADLSEAANRNNDALRQAKQESTEYRRQVQSLTCEVDALK | soluble
19 | MAHHHHHHMAHVITRINAREILDSRGNPTVEVDLETNLGIFRAAVPSGASTGIYEALELRDNDKSRYLGKGVQKAIKNINEIIAPKLIGMNCTEQKKIDNLMVEELDGSKNEWGWSKSKLGANAILAISMAVCRAGAAANKVSLYKYLAQLAGKKSDQMVLPVPCLNVINGGSHAGNKLSFQEFMIVPVGAPSFKEALRYGAEVYHTLKSEIKKKYGIDATNVGDEGGFAPNILNANEALDLLVTAIKSAGYEGKVKIAMDVAASEFYNSENKTYDLDFKTPNNDKSLVKTGAQLVDLYIDLVKKYPIVSIEDPFDQDDWENYAKLTAAIGKDVQIVGDDLLVTNPTRITKALEKNACNALLLKVNQIGSITEAIEACLLSQKNNWGVMVSHRSGETEDVFIADLVVALRTGQIKTGAPCRSERNAKYNQLLRIEESLGNNAVFAGEKFRLQLN | not soluble
20 | SAPEENAGTELLLQSFERRFLAARTLRSFPWQSLEAKLRDSSDSELLRDILHKTVKHPVCVKHPPSVKYARCFLSELIKKHEAVHTEPLDELYEALAETLMAKESTQGHRSYLLPSGGSVTLSESTAIISYGTTGLVTWDAALYLAEWAIENPAVFTNRTVLELGSGAGLTGLAICKMCRPRAYIFSDCHSRVLEQLRGNVLLNGLSLEADITAKLDSPRVTVAQLDWDVATVHQLSAFQPDVVIAADVLYCPEAIMSLVGVLRRLAACREDQRAPEVYVAFTVRNPETCQLFTTELGRAGIRWEVEPRHEQKLFPYEEHLEMAMLNLTL | soluble
21 | MPMTLGYWNIRGLAHSIRLLLEYTDSSYEEKKYTMGDAPDYDRSQWLNEKFKLGLDFPNLPYLIDGTHKITQSNAILRYIARKHNLCGESEKEQIREDILENQFMDSRMQLAKLCYDPDFEKLKPEYLQALPEMLKLYSQFLGKQPWFLGDKITFVDFIAYDVLERNQVFEPSCLDAFPNLKDFISRFEGLEKISAYMKSSRFLPRPVFSKMAVWGNK | soluble
22 | MAHKKSNRQLIDACRQNFLSHLRLREWRDVHSQLLTVVREHGWRLNEAEATYEQIHLALLTGLLGNLGMKADDDPHYLGARGIKFYLWPGSALAKKAGRWVMAAELVETSRLYARCLAKIEPEWIEKVGAHLLKKSLSEPLEHHHHHH | soluble
